How the values were obtained:
[1] = biological target: Polyclonal human IgG Gammanorm (human); experiment: affinity chromatography column, IgG binding capacity after 24 h in 0.5 M NaOH at room temperature relative to before incubation
[2] = biological target: Polyclonal human IgG Gammanorm (human); experiment: affinity chromatography, commercial resin packed in column, polyclonal human IgG (Gammanorm) applied, DBC at 6 min residence time

MabSelect SuRe
Remaining binding capacity after 24h 0.5M NaOH incubation [1]: 75.2% | Dynamic binding capacity at 6 min residence time [2]: 41.8 mg/mL

— patent US20220112236A1
